Assay results as given in paper PMC3986562.

How the values were obtained:
[1] = target: F-Actin (UniProt P68135); experiment: co-sedimentation; Actin pre-polymerized, sedimentated and then incubated with Simiate or the control protein; 100,000 g for 1 h; supernatant and pellet by SDS-PAGE
[2] = target: F-Actin (UniProt P68135); experiment: co-sedimentation; G-Actin polymerized 2.5 h at 25°C in polymerization buffer (5 mM Tris pH 8.0, 0.2 mM CaCl2, 1 mM ATP, 0.5 mM DTT, 5 mM KCl, 2 mM MgCl2) with equal amounts (0.125 μg/μl) of Simiate or GST; 100,000 g for 1 h; supernatant and pellet by SDS-PAGE
[3] = target: G-Actin (UniProt P68135)

Substance: recombinant Simiate (natural protein)
- percent of the total Simiate content in the sediment [1]: 50.8%
- percent of the total Simiate content in the sediment [2]: 51.4%
- decrease in amount of Actin polymerized after a period of 3 h (sedimentation assay), against Actin alone [3]: 29%
